Assay results: the nanobody polyreactivity screen of Harvey et al. (2022)

Experiment: yeast display, Sf9 membrane polyspecificity reagent, FACS + sequencing; frameworks hold sequencing errors
In short: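 Using colony PCR, genes from sorted yeast display clones were amplified, then sequenced on MiSeq at 2 × 250 and filtered by CDR length. The clones had been stained with 10% biotinylated, detergent-solubilized Sf9 membrane reagent for 1 hour at 4 °C and sorted by FACS into low and high (top ~1%) gates on anti-HA and streptavidin fluorescence. Polyreactivity labels come from the gate of origin.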

Sequence: QVQLVESGGGLVQAGGSLRLSCAASGFNLKWYAMGWYRQAPGKERELVAAINDRGGNTYYADSVKGRFTISRDNAKNTVYLQMNSLKPEDTAVYYCAVRGKTYRPYYYWGQGTQVTVSS
- polyreactivity (PSR sort gate): high polyreactivity

Sequence: QVQLVESGGGLVQAGGSLRLSCAASGFNTRLYAMGWYRQAPGKEREFVAAISWDGTRTYYADSVKGRFTISRDTANKTFYLQMNSLKPEDTAVSYCNARRRQWQARYDYWGQGTQITVSS
- polyreactivity (PSR sort gate): high polyreactivity

Sequence: QVQLVESGGGLVQAGGSLRLSCAASGFNVRYYAMGWYRQAPGKERELVAAISSGGNTRYADSVKGRFTISRDNAKNTVYLQMNSLKPEDTAVYYCARRPGAWKYVYTGDYWGQGTQVTVSS
- polyreactivity (PSR sort gate): high polyreactivity

Sequence: QVQLVESGGGLVQAGGSLRLSCAASGFNYRYYAMGWYRQAPGKERELVAAIDYSGGSTNYADSVKGRFTISRDNAKNTVYLQMNSLNPEDTAVYYCNAEYTWHRGYDYWGQGTQVTVSS
- polyreactivity (PSR sort gate): low polyreactivity

Sequence: QVQLVESGGGLVQAGGSLRLSCAASGFNYSNAMGWYRQAPGKERELVAAITSRGGSTYYADSVKGRFTISRDNAKNTVYLQMNSLKPEDTAVYYCATKVWTRFIYYYWGQGTQVTVSS
- polyreactivity (PSR sort gate): high polyreactivity

Sequence: QVQLVESGGGLVQAGGSLRLSCAASGFSFEGYAMGWYRQAPGKERELVAAISSNGGRTYYADSVKGRFTISRDNAKNTVYVLMNSLKPEDTAVYYCNARRAYSGPDYDYYHGRRYDYWGQGTQVSVSS
- polyreactivity (PSR sort gate): low polyreactivity

Sequence: QVQLVESGGGLVQAGGSLRLSCAASGFSFTNYAMGWYRQAPGKERELVAAINRSGGRTYYADSVKGRFTISRDNAKNTVYLQMNSLKPEDTAVYYCAAYGRYYYIYDYWGQGTQVTVSS
- polyreactivity (PSR sort gate): high polyreactivity

Sequence: QVQLVESGGGLVQAGGSLRLSCAASGFTCTSNAMGWYRQAPGKERELVAAITFTGGRTYYADSVKGRFTISRDNAKNTVYLQMNSLKPEDTAVYYCNRVTAYYPTKFDYWGQGTQVTVSS
- polyreactivity (PSR sort gate): high polyreactivity

Sequence: QVQLVESGGGLVQAGGSLRLSCAASGFTFAFYTMGWYRQAPGKERELVAGITRSGTNTYYADSVKGRFTISRDNSKNTVYLQMNSLKPEDTSVYYCNADPRTGWYKYDYWGQGTQVTVSS
- polyreactivity (PSR sort gate): high polyreactivity

Sequence: QVQLVESGGGLVQAGGSLRLSCAASGFTFAGNAMGWDRPAPGKERELVAGISRRGGNTYYADSVKGRFTISRDTAKNTVYLQMNRLKPEDTAVYYCARYSSSYWGQGTQVTVSS
- polyreactivity (PSR sort gate): high polyreactivity

Sequence: QVQLVESGGGLVQAGGSLRLSCAASGFTFAGNTMGWYRQAPGKERELVAAINSGGSTHYADSVKGRFTISRDNAKNTVYLQMNSLKPEDTAVYYCADYLTRYGAYYWGQGTQVTVSS
- polyreactivity (PSR sort gate): high polyreactivity

Sequence: QVQLVESGGGLVQAGGSLRLSCAASGFTFAHNAMGWYRQATGKERELVAVISWSGGRTYYADSVKGRFTISRDNAMNTVYLQMNSLKPEDTAVYYCATRHSKFSYGYWGQGTQVTVSS
- polyreactivity (PSR sort gate): high polyreactivity

Sequence: QVQLVESGGGLVQAGGSLRLSCAASGFTFAPNAMGWYRQAHGKERELVAAISSASSTYYADSVKGRFTISRDNAKNTVYLQMNSLKPEDTAVYYCAAREGWGFYYWGQGTQGTVSS
- polyreactivity (PSR sort gate): high polyreactivity

Sequence: QVQLVESGGGLVQAGGSLRLSCAASGFTFAPYAMGWYRQAPGKERELVAAISSNGGSTYYADSVKGRFTISRDNAKNTVYLQMNSLKPGDTAVYYCAAPVRQSSYNRYDSWGQGTQVTVSS
- polyreactivity (PSR sort gate): high polyreactivity

Sequence: QVQLVESGGGLVQAGGSLRLSCAASGFTFAQYTMGWYRPAPGKERELVAAIRVGGGSTYYADSVKGRFTISRDNAKNTVYLQMNSLKPEDTAVYYCAKRTYSRKFRGAYNYWGQGTQVTVSS
- polyreactivity (PSR sort gate): high polyreactivity

Sequence: QVQLVESGGGLVQAGGSLRLSCAASGFTFARYAMGWYRQAPGKERELVAAISWSGARTYYADSVKGRFTISRDNAKNTVYLQMNSLKPEDTAVYYCNAVSGSSNFDYWGQGTQVTVSS
- polyreactivity (PSR sort gate): high polyreactivity

Sequence: QVQLVESGGGLVQAGGSLRLSCAASGFTFASNAMGWYRQAPGKERELVAAITWGTGTTSYADSVKGRFTISRDYAKNTVYLQMNSLKPEDTAVYYCNARVGPELHDYWGQGTQVTVSS
- polyreactivity (PSR sort gate): low polyreactivity

Sequence: QVQLVESGGGLVQAGGSLRLSCAASGFTFASNAMGWYRQAPGKERELVADITNTGSTYYADSVKGRFTISRDNAKNTVYLQMNSLKPEDTAVYYCAARSRDVTDGQRISAPHGYWGQGTQVTVSS
- polyreactivity (PSR sort gate): low polyreactivity

Sequence: QVQLVESGGGLVQAGGSLRLSCAASGFTFASYAMGWYRQAPGKERELVAAITRRGGSTNYADSVKGRFTISRDNAKNTVFLQMISLKPEDTAVYYCNDLHGVWDPAYDYWGQGTQVTVSS
- polyreactivity (PSR sort gate): low polyreactivity

Sequence: QVQLVESGGGLVQAGGSLRLSCAASGFTFASYVMGWYRQAPGKERELVASISWSGGRTYYADSVKGRFTISRDNAKNTVYLQMNSLKPEDTAVYYCNVLVTRYSPWFLYNYWGLGTQVTVSS
- polyreactivity (PSR sort gate): high polyreactivity

Sequence: QVQLVESGGGLVQAGGSLRLSCAASGFTFAVNVMGWYIHAPGKEREFDAAISWTGGSTDYADSVKGRFTISLDNAKNTVYLQMNSLKPEDTAVYYCAADYNLRLQPFRKLVGPAGGYWGQGTQLTVSS
- polyreactivity (PSR sort gate): low polyreactivity

Sequence: QVQLVESGGGLVQAGGSLRLSCAASGFTFAVYAMGWYRQAPGKERELVAAISRSGTRTYYADSVKGRFTISRDNAKNTVYLQMNSMKPEDTAVYYCAADKYRHGYDYWGQGTQVTVSS
- polyreactivity (PSR sort gate): low polyreactivity

Sequence: QVQLVESGGGLVQAGGSLRLSCAASGFTFAWNAMGWYRQAPGKERELVATIDVSGGSTYYADSVKGRFTISRDNAKNTVYLQMNILKPEDTAVYYCAADELPEGGYDYWGHGTQVTVSS
- polyreactivity (PSR sort gate): low polyreactivity

Sequence: QVQLVESGGGLVQAGGSLRLSCAASGFTFAYYAMGWYRQAPGKERELVAAISYSGGSTYYADSVKGRFTISRDNAKNTVYLQMNSLKPVDTAVYYCAAEAGRRYNWGYDYWGQGTQVTVSS
- polyreactivity (PSR sort gate): high polyreactivity

Sequence: QVQLVESGGGLVQAGGSLRLSCAASGFTFAYYAMGWYRQAPGKERELVAAITRGGGRTFYADSVKGRFTISRDNAKNTVYLQMNSLKPEDTAVYYCAAVKDTTNSRGYGYWGQGTQVTVSS
- polyreactivity (PSR sort gate): high polyreactivity

Sequence: QVQLVESGGGLVQAGGSLRLSCAASGFTFAYYAMGWYRQAPGKERELVADISSGGSTDYADSVKGRFTISRDNAKNTVYLQMNSLKPEDTAVYYCNAVVVRLWYDYDYWGQGTQVTVSS
- polyreactivity (PSR sort gate): low polyreactivity

Sequence: QVQLVESGGGLVQAGGSLRLSCAASGFTFAYYAMGWYRQAPGKERELVASISYNGGITNYADSVKGRFTISRDNAKNTVYLQMNSLKPEDTSVYYCNAVPHYYWRFDYWGQGTQVTVSS
- polyreactivity (PSR sort gate): low polyreactivity

Sequence: QVQLVESGGGLVQAGGSLRLSCAASGFTFAYYAMGWYRQAPGKERELVATITSGGRTYYADSVKGRFTISRDNAKNTVYLQMNSLKPEDTAVYYCAAAGKGRYHFRSTMDYWGQGTQVTVSS
- polyreactivity (PSR sort gate): high polyreactivity

Sequence: QVQLVESGGGLVQAGGSLRLSCAASGFTFAYYTMGWYRQAPGKERELVAAISWSGSSTYYADSVKGRFTISRDNAKNTVYLQMNSLKPEDTAVYYCAAKGWYVQHFKRGLYNYWGQGTQVTVSS
- polyreactivity (PSR sort gate): high polyreactivity

Sequence: QVQLVESGGGLVQAGGSLRLSCAASGFTFDANAIGWYRQAPGKERELVAAISSSGGSTYYADSVKGRFTISRDNAKNTVYLQMNSLKPEDTAVYYCAADLAPGRHDYWGQGTQVTVSS
- polyreactivity (PSR sort gate): high polyreactivity

Sequence: QVQLVESGGGLVQAGGSLRLSCAASGFTFDANAMGWYRQAPGKERELVAAINWSGGSTYYADSVKGRFTISRDNAKYTVYLQMNSLKPEDTAVYYCAAELWGLFDYWGQGTQVTVSS
- polyreactivity (PSR sort gate): low polyreactivity

Sequence: QVQLVESGGGLVQAGGSLRLSCAASGFTFDAYDMGWYRQAPGKERELVASITGGGSTYYADSVKGRFTISRDNAKNTVYLQMNSLKPEDTAVYYCAADLYFEGYNRYYHISGFDYWGQGTQVTVSS
- polyreactivity (PSR sort gate): low polyreactivity

Sequence: QVQLVESGGGLVQAGGSLRLSCAASGFTFDDYTMGWYRPAPGKEREFVAAISSSGGSTYYADSVKGRFTISRDNAKNTVYLQMNSLKPVDTAVYYCAADARYYDYYEYDYWGQGTQVTVSS
- polyreactivity (PSR sort gate): high polyreactivity

Sequence: QVQLVESGGGLVQAGGSLRLSCAASGFTFDFYAMGWYRQAPGKERELVAAISRRGGRTSYADSVKGRFTISRDNAKNTVYLQMNSLKPEDTAVYYCAAASLGGDGLVAYYYWGQGTQVTVSS
- polyreactivity (PSR sort gate): high polyreactivity

Sequence: QVQLVESGGGLVQAGGSLRLSCAASGFTFDFYVMGWYRQAPGKERELVAAISWDGGTTYYADSVKGRFTISRDNAKNTVYLQMNSLKPEDTAVYYCAADDWVYVPTGAWYLYEYWGQGTQVTVSS
- polyreactivity (PSR sort gate): high polyreactivity

Sequence: QVQLVESGGGLVQAGGSLRLSCAASGFTFDGYAMGWDRQAPGKERELVAAISGGGSTYYADSVKGRFTISRDNAKNTVYLQMNSLKPEDTAVYYCAVVYRYRTRSRSYFLPFDYWGQGTQVTVSS
- polyreactivity (PSR sort gate): high polyreactivity

Sequence: QVQLVESGGGLVQAGGSLRLSCAASGFTFDGYGMGWYRHAPGKERELVAVITSGGSTKYADSVKGRFTISRDNAKNTVYLQMNSLKPEDTAVYYCNVVGGRPNPYYDEMDYWGQGPQVTVSS
- polyreactivity (PSR sort gate): low polyreactivity

Sequence: QVQLVESGGGLVQAGGSLRLSCAASGFTFDINTMGWYRQAPGKERELVAAITYSGGSTYYADSVKGRFTISRDKAKNTVYLQMNSLKPEDTAVYYCATTWYFVASWYVAIYDYWGQGTQVTVSS
- polyreactivity (PSR sort gate): low polyreactivity

Sequence: QVQLVESGGGLVQAGGSLRLSCAASGFTFDIYAMGWYRQAPGKEWELVAAITSGGITNYADSVKGRFTISRDNAKNTVYLQMNSLKPEDTAVYYCAADEYLGFYVSHTDWTKYDYWGQGTQVTVSS
- polyreactivity (PSR sort gate): low polyreactivity

Sequence: QVQLVESGGGLVQAGGSLRLSCAASGFTFDKNAMGWYRQAPGKERELVAAINIGSTYYADSVKGRFTISRDNAKNTVYLQMNSLKPEDTAVYYCAKEVPSGYWVNYYYWGQGTQVTVSS
- polyreactivity (PSR sort gate): low polyreactivity

Sequence: QVQLVESGGGLVQAGGSLRLSCAASGFTFDKNAMGWYRQAPGKERELVAAITKSGGSTYYADSVKGRFTISRDNAKNTVYLQMNSLKPEETAVYYCNAPPWSRYYYDLLRHDYWGQGTQVTVSS
- polyreactivity (PSR sort gate): low polyreactivity

Sequence: QVQLVESGGGLVQAGGSLRLSCAASGFTFDLYAKGWYRQAPGKERELVAVITRGGSTYYADSVKGRFTISRDNAKNTVYLQMNSLKPEDTAVYYCAKYSIIDWWGGEDYWGQGTQVTVSS
- polyreactivity (PSR sort gate): high polyreactivity

Sequence: QVQLVESGGGLVQAGGSLRLSCAASGFTFDRNAMGWYRQAPGKERGLVAAISSSGGRTYYADSVKGRFTISRDNAKNTVYLQMNSLKPEDTAVYYCAAVFFSRPSAYGSRYYWGQGTQVTVSS
- polyreactivity (PSR sort gate): high polyreactivity
